B1: 3'-5' exoribonuclease 1, residues 65 to 114; numbered along this chain, Q8IV48 (parent)
chain: VYKEIAITNGCINRMSKEELRAKLSEFKLETRGVKDVLKKRLKNYYKKQK

Variants of: B1
Assay: abundance fitness (aPCA) (normalised: wild type 0, dead -1); higher = more abundant; growth selection in yeast, the domain comes from the species named
Conditions: Homo sapiens

Abundance fitness, by site and new letter:
G33: C -0.608 | A -0.842
F27: S -0.307 | Y -0.019 | L 0.148 | W -0.453 | Q -0.166 | K -0.065 | C 0.065 | E -0.036 | N 0.007 | P -0.914 | G -0.723 | A -0.065 | I 0.003 | T -0.483 | D -0.652 | H 0.062 | M 0.026
K28: A -0.141 | Q -0.124 | R -0.061 | G 0.038 | S -0.06 | P -0.963 | M -0.194 | T -0.338 | C -0.127 | W -0.779 | Y -0.39 | D -0.156 | F -0.407 | E -0.178 | H -0.057 | V -0.817 | L -0.732
S25: T -0.126 | Y -0.105 | N -0.038 | H -0.099 | E -0.106 | M -0.1 | A 0.032 | L -0.083 | R 0.022 | I -0.315 | K 0.004 | W -0.188 | G -0.039 | D -0.096 | P -0.323 | C -0.121 | F -0.104 | V -0.205 | Q -0.034
E30: I -0.732 | W -0.516 | P -0.283 | G -0.562 | M -0.685 | L -0.67 | F -0.501 | H -0.689 | T -0.566 | N -0.16 | S -0.148 | V -0.738 | R -0.685 | Q -0.359 | K -0.401 | Y -0.387
L29: F -0.688 | H -0.974 | N -0.827 | W -0.694 | T -0.884 | K -0.666 | G -0.875 | Q -0.196 | E -0.737 | C -0.256 | V -0.561 | Y -0.874
